# According to patent US20170052184A1 (published 2017):
# B1: HCV 208A-442 (antibody, V domains shown)
# VH: DVQLQESGPGLVNPSQSLSLTCSVTGYSITSGYYWIWIRQFPGNKLEWMGYIKYDGGNNYSPSLKNRISIARDTSKNQFFLKLNSVTIEDTATYYCTRGSDSFDYWGQGTTLTVSS
# VL: DIVLTQSPASLAVSLGQRAIISCKASQSVSFAGTNLMHWYQQKPGQQPKLLIYRASNLETGVPTRFSGSGSRTDFTLNIHPVEEDDAATYYCQQSREYYTFGGGTKLEIKR
# B2: HCV 208A-557 (antibody, V domains shown)
# VH: QGQMQQSGAELVKPGASVKLSCKTSGFTFSSSYISWLKQKPGQSLEWIAWIYAGTGNTNYNQKFTDKAQLTVDTSSSTAYMQLSSLTTEDSAIYYCAISGTGFTYWGQGTLVTVSA
# VL: DIALTQSPASLAVSLGQRATISCRASQSVSTSRYSYMHWYQQKPGQPPELLIKYASNLESGVPARFSGSGSGTDFTLNIHPVGEEDTATYYCQHSWDFPFTFGSGTKLEIKR
# B3: HCV 208B-560 (antibody, V domains shown)
# VH: EVQLQQSGPELEKPGASVKISCKTSGYTFTEYAMHWVKQSHGMSLEWIGGINPSNGNAIYNQIFKDKATLTVDRSSSTAYMGLRSLTFGDSGVYFCVRRQLDFFDYWGQGASLTVSS
# VL: DIVVTQSPASLAVSLGQRATISCRASQSVSTSRYSYLHWYQQKPGQPPKLLIKYASNLESGVPARFSGSGSGTDFTLNIHPVGEEDTATYYCQHSWEFPFTFGSGTKLEIKR
# B4: HCV 208A-134 (antibody, V domains shown)
# VH: QGQMQQSGAELAKPGASVKLSCKTSGFTFSSSYISWLKQKPGQSLEWIAWIYAGTGNTNYNQKFTDKAQLTVDTSSSTAYMQLSSLTTEDSAIYYCAISGTGFTYWGQGTLVTVSA
# VL: EVLMTQSPLSLPVSLGDQASISCRSSQSLEHTNGNTYLEWFLQRPGQPPKLLIYKVSSRFSGVPDRFSGSGSGTDFTLKISRVEAEDLGVYYCFQGSHVPFTFGSGTKLAIKR
# B5: HCV 208A-692 (antibody, V domains shown)
# VH: QGQMQQSGAELAKPGASVKLSCKTSGFTFSSSYISWLKQKPGQSLEWIAWIFAGTGNTNYNQKFTDKAQLTVDTSSSTAYMQLSSLTTEDSAIYYCAISGTGFTYWGQGTLVTVSA
# VL: EVLMTQSPLSLPVSLGDQASISCRSSQSLEHSNGNTYLEWFLQRPGQPPKLLIYKVSSRFSGVPDRFSGSGSGTDFTLKISRVEAEDLGVYYCFQGSHVPFTFGSGTKLAIKR
# B6: HCV 208A-222 (antibody, V domains shown)
# VH: EVQLQQSGPELEKPGASVRISCKTSGYTFTEYAMHWVKQSHGKSLEWIGGINPNNGNAIYNQIFKDKATLTVDRSSSTAYMGLRSLTFGDSGVYFCVRRQLDYFDYWGQGASLTVSS
# VL: DIVVTQSPASLAVSLGQRATISCRASQSVSTSRYSYLHWYQQKPGQPPKLLIKYASNLESGVPARFSGSGSGTDFTLNIHPVGEEDTATYYCQHSWEFPFTFGSGTKLEIKR
# B7: HCV 208A-605 (antibody, V domains shown)
# VH: EVQLQQSGPELEKPGASVKISCKTSGYTFTEYAIHWVKQSHGMSLEWIGGINPSNGNAIYNQIFKDKATLTVDRSSSTAYMGLRSLTFGDSGVYFCVRRQLDFFDYWGQGASLTVSS
# VL: DIVVTQSPASLAVSLGQRATISCRASQSVSTSRYSYLHWYQQKPGQPPKLLIKYASNLESGVPARFSGSGSGTDFTLNIHPVGEEDTATYYCQHSWEFPFTFGSGTKLEIKR
# B8: HCV 208A-638 (antibody, V domains shown)
# VH: QGQLQQPGAEFVKPGASLKLSCRASGYTFTSYWIHWVKQRPGQGLEWIGEVDPSDSYINQNEKFRGKATLTVDKSSSTAYMQLGSLTSEDSAVYYCARHYYGVLDSWGQGTALTVSS
# VL: QIVLTQSPTIMSASLGERVTMTCTASSSVSSSYLHWFQQKPGSSPKLWIYSTSNLASGVPPRFSGSGSGTSYSLSISSVEAEDVATYYCLQFHRSPWTFGGGAKLEIKR
# Columns and labels:
# HCV Core1-169 [1] = biological target: T1, HCV Core1-169 (HCV-1, UniProt P26664 1-169); experiment: EIA, core1-169 coated on plate
# T1 construct: also called recombinant HCV core antigen
# T1 sequence: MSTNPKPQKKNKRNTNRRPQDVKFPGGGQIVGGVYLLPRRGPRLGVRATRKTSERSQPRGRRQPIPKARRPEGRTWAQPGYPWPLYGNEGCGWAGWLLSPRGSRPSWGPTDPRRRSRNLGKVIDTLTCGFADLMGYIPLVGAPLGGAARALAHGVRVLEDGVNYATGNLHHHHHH
# HCV Core1-169 [2] = biological target: T1, HCV Core1-169; experiment: EIA, core1-169 captured by mAb 14-153-229
# Further: test concentration or dose not given here.
Binder,OD (A492) (HCV Core1-169 [1]) [OD],OD (A492) (HCV Core1-169 [2]) [OD]
B1,1.61,0.36
B2,1.4,2.39
B3,1.07,1.3
B4,0.1,0.13
B5,0.07,0.57
B6,1.06,2.07
B7,0.55,2.21
B8,1.07,2.24
